Experimental data taken from publication PMC8917853, “Synthesis and evaluation of ^99mTc-DOTA-ARA-290 as potential SPECT tracer for targeting cardiac ischemic region” (Iranian Journal of Basic Medical Sciences, 2021).
Residues, ends and D or L forms follow the SMILES beside them. *: point of attachment. DOTA = O=C(O)CN1CCN(CC(=O)O)CCN(CC(=O)*)CCN(CC(=O)O)CC1; X1 = CN(C)c1ccc(/N=N/c2ccc(C(=O)*)cc2)cc1

How the values were obtained:
in vitro = settings: human, fresh human serum
Procedure: (§1) As an in vitro stability evaluation, radiolabeled peptides (specific activity= 18.5 MBq/nmol) were added to sodium chloride 0.9 % isotonic solution ([24]). After incubation at ambient temperature, samples were taken out at 0.06, 0.5, 1, 2, 4, and 6 hr. The radiochemical purity of the mixture was investigated by a TLC stripe. To survey biostability, 100 μl of the labeled compound was added to fresh human serum (1 ml) and incubated (37 °C, 5% CO2) at different time points (4, 30, 60, 120, 240, and 360 min). 100 μl aliquots of serum samples were then incubated with 100 μl of ethanol. Samples were centrifuged at 5000 rpm for 5 min at 37 °C and 20 µl supernatant was removed to assess the degradation of ^99mTc labeled peptide by TLC.

[1] = molecular target: T1, EPOR-BcR receptor on H9c2 myocardial cells (Rattus norvegicus, UniProt Q07303+Q78ZF5); experiment: In vitro hypoxia test: binding to hypoxic vs normoxic H9c2 myocardial cells; assay type: cell-based; settings: for binding to hypoxic cells relative to normoxic cells: H9c2 cells, 250 pmol radiopeptide, 37 °C, triplicate
T1 construct: endogenous in cells; host or cells: H9c2 myocardial cells (hypoxic vs normoxic culture)
T1 sequence (Q07303 25-507): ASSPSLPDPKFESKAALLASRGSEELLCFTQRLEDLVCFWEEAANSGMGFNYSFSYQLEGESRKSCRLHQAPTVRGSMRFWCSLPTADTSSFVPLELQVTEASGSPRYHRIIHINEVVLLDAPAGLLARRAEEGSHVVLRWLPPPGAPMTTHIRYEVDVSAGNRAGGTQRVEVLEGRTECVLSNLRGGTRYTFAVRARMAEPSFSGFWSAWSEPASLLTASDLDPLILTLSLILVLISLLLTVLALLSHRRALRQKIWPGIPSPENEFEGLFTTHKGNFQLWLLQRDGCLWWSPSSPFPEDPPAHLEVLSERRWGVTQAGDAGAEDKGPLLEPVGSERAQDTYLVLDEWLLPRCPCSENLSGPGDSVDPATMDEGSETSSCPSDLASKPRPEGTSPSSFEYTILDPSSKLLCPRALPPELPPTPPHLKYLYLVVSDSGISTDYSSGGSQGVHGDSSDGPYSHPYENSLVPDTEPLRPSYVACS
T1 sequence (Q78ZF5 29-896): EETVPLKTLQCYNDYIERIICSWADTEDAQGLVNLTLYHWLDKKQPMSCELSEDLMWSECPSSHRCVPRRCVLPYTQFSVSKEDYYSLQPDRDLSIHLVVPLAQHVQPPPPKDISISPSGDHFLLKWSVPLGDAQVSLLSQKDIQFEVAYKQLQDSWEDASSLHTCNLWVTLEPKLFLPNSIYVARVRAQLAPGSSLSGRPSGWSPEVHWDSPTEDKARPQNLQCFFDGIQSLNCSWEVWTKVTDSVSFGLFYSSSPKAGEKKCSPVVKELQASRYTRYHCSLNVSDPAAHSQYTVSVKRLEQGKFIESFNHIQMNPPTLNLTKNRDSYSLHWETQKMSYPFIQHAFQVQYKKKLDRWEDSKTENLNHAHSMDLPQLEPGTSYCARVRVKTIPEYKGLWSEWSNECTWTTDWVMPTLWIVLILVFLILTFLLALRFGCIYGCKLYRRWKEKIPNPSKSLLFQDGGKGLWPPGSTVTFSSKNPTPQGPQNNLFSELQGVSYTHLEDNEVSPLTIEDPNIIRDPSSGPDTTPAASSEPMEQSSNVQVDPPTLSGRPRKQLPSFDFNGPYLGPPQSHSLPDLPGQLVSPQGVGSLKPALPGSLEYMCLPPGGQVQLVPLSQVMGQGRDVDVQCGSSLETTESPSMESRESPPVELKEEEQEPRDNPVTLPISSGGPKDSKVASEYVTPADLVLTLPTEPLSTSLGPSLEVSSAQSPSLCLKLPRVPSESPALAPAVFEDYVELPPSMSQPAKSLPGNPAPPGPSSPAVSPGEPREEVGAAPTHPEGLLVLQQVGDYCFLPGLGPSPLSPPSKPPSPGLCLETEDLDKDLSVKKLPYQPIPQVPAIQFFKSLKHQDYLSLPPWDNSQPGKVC
Procedure: H9c2 myocardial cells were separated into three groups. The normoxic control group (negative EPOR-BcR receptor) was cultured in a normoxic (20% O2) culture medium. Hypoxic group (positive EPOR-BcR receptor) was cultured in a different time interval (1-4 hr) hypoxic culture condition (5% CO2 and 2% O2) and blocking test (specific binding assay) in the hypoxic condition. […] The cells for triplicate were placed inside confocal plates (Costar) at a density of 1 × 10^5 per well, then treated with almost 250 pmol of ^99mTc-DOTA-(Lys-Dabcyl^6,Phe^7)-ARA-290 subject to 0.025 MBq at 37 °C. Incubation was disrupted with 1 ml of chilled PBS. Afterward, the cells were separated by […] to measure the cell-bound level of ^99mTc-DOTA-(Lys-Dabcyl^6,Phe^7)-ARA-290 by a scintillator. EPOR-BcR receptor blocking was done by using 50-fold extra of the unlabeled peptide in 30 min before the injection of the labeled peptide.

cardiac ischemic region = experiment: Planar SPECT scintigraphy in ischemic and normal rats; assay type: in vivo, rat; settings: 200 MBq
Procedure: 30 and 90 min post-injection of ^99mTc-DOTA-(Lys-Dabcyl^6,Phe^7)-ARA-290 (200 MBq) into ischemic and normal rats, planar images were captured by a dual-head SPECT system (E.cam, Siemens, Germany) that was arranged with low energy high-resolution collimators, a 128*128 matrix size, and a 20% energy window set at 140 keV ([29]).

in vivo = experiment: in vivo
Procedure: To study ischemia-induced myocardial injuries, male Wistar rats weighing 200~250 gr were sorted into three groups of four (n=4): (1) normal group, (2) Ischemic group, and (3) sham group. The rats were anesthetized by intraperitoneal (IP) administration of 3 % pentobarbital sodium (60 mg/kg). Positive pressure mechanical ventilation was made by a Shinano respirator (SN-480–4) and an open-heart operation was done at the level of the left 4th–5th ribs. The rats received intramuscular injections of penicillin sodium (0.8 mg/g) to prevent infection. Myocardial ischemia was induced by a slipknot (4–0 silk suture) around the LAD about 2–3 mm near its origin. After 30-min ischemia, the slipknot was loosened to restore normal circulation for reperfusion ([28]). […] In the same group, heart surgery was performed without LAD artery occlusion.
The biodistribution of radiopeptide among tissues was measured by sacrifice of rats for each elected interval (30, 60, 180, and 360 min) post-injection. Various tissues, including heart, bone, kidneys, muscle, salivary glands, spleen, and intestines, were removed immediately and rinsed with saline solution to clean their residual blood. Moreover, blood samples for monitoring radioactivity were taken from the heart by a heparin-impregnated syringe after sacrificing. The percentage of injected activity per gram (%ID/g) for different organs was measured by dividing the activity of each organ per decayed total injected activity and mass of each organ. Moreover, in ischemic rats, 100 μg unlabeled peptide was co-injected with radiolabeled peptide to analyze the in vivo blocking test.

[2] = sodium chloride 0.9%, ambient temperature, up to 6 hr, TLC, specific activity 18.5 MBq/nmol, mean n=3
Procedure: as §1

[3] = male, Wistar, rat, blood, iv, 20 MBq, total radioactivity
[4] = male, Wistar, rat, bone, iv, 20 MBq, total radioactivity
[5] = male, Wistar, rat, heart, iv, 20 MBq, total radioactivity
[6] = male, Wistar, rat, intestines, iv, 20 MBq, total radioactivity
[7] = male, Wistar, rat, ischemic heart / lung, iv, 20 MBq, total radioactivity
[8] = male, Wistar, rat, ischemic heart, iv, 20 MBq, total radioactivity
[9] = male, Wistar, rat, kidneys, iv, 20 MBq, total radioactivity
[10] = male, Wistar, rat, liver, iv, 20 MBq, total radioactivity
[11] = male, Wistar, rat, lung, iv, 20 MBq, total radioactivity
[12] = male, Wistar, rat, muscle, iv, 20 MBq, total radioactivity
[13] = male, Wistar, rat, salivary gland and thyroid, iv, 20 MBq, total radioactivity
[14] = male, Wistar, rat, spleen, iv, 20 MBq, total radioactivity
[15] = male, Wistar, rat, stomach, iv, 20 MBq, total radioactivity

CC(C)C[C@H](NC(=O)[C@H](Cc1ccccc1)NC(=O)[C@H](CCCCNC(=O)c1ccc(/N=N/c2ccc(N(C)C)cc2)cc1)NC(=O)[C@H](CCC(=O)O)NC(=O)[C@H](CC(C)C)NC(=O)[C@H](CCC(N)=O)NC(=O)[C@H](CCC(=O)O)NC(=O)[C@H](CCC(=O)O)NC(=O)CN1CCN(CC(=O)O)CCN(CC(=O)O)CCN(CC(=O)O)CC1)C(=O)N[C@@H](CC(N)=O)C(=O)N[C@@H](CO)C(=O)N[C@@H](CO)C(=O)O [99mTc-DOTA-(Lys-Dabcyl6,Phe7)-ARA-290, metal not drawn] ({DOTA}-EEQLEK(X1)FLNSS-OH; C-terminus assumed)
remaining at 4 h (in vitro): 94% | remaining at 6 h (in vitro): 93% | binding to hypoxic cells relative to normoxic cells ([1]; hypoxia 2% O2 vs normoxia 20% O2, 1 hr): 3 fold | binding to hypoxic cells relative to normoxic cells ([1]; hypoxia 2% O2 vs normoxia 20% O2, 4 hr): ~5 fold | binding to hypoxic cells in blocking test ([1]; hypoxic H9c2 cells, 50 mol excess of unlabeled peptide 30 min before radiopeptide): the same result was obtained for the normoxic cells | binding affinity to H9c2 cells under normoxic situations ([1]; normoxic 20% O2, H9c2 cells): very low | scintigraphy: ischemic region uptake (cardiac ischemic region; cardiac ischemic rats, planar images at 30 and 90 min post-injection): considerable ischemic region uptake | scintigraphy: cardiac accumulation (cardiac ischemic region; normal rat, 30 min post-injection): not detectable | Isch heart/Th ratio (in vivo; 60 min p.i., block with 100 μg unlabeled peptide, ischemic rats): 1.04 | Isch heart/Lung ratio (in vivo; 180 min p.i., ischemic rats): 2.61 | Isch heart/Th ratio (in vivo; 180 min p.i., ischemic rats): 4.68 | Isch heart/Th ratio (in vivo; 360 min p.i., ischemic rats): 6.01 | tissue uptake at 0.5 h (in vivo; [3]): 1.52 ± 0.29 %ID/g | tissue uptake at 1 h (in vivo; [3]): 0.96 ± 0.16 %ID/g | tissue uptake at 3 h (in vivo; [3]): 0.44 ± 0.28 %ID/g | tissue uptake at 6 h (in vivo; [3]): 0.12 ± 0.87 %ID/g | tissue uptake at 0.5 h (in vivo; [4]): 0.75 ± 0.41 %ID/g | tissue uptake at 1 h (in vivo; [4]): 0.53 ± 0.21 %ID/g | tissue uptake at 3 h (in vivo; [4]): 0.32 ± 0.21 %ID/g | tissue uptake at 6 h (in vivo; [4]): 0.16 ± 0.29 %ID/g | tissue uptake at 0.5 h (in vivo; [5]): 0.62 ± 0.15 %ID/g | tissue uptake at 1 h (in vivo; [5]): 0.31 ± 0.18 %ID/g | tissue uptake at 3 h (in vivo; [5]): 0.21 ± 0.32 %ID/g | tissue uptake at 6 h (in vivo; [5]): 0.14 ± 0.23 %ID/g | tissue uptake at 0.5 h (in vivo; [6]): 1.73 ± 0.1 %ID/g | tissue uptake at 1 h (in vivo; [6]): 3.22 ± 0.78 %ID/g | tissue uptake at 3 h (in vivo; [6]): 2.89 ± 0.08 %ID/g | tissue uptake at 6 h (in vivo; [6]): 2.35 ± 0.25 %ID/g | tissue to tissue ratio at 0.5 h (in vivo; [7]): 3.65 | tissue to tissue ratio at 1 h (in vivo; [7]): 4.31 | tissue to tissue ratio at 6 h (in vivo; [7]): 3.37 | tissue uptake at 0.5 h (in vivo; [8]): 3.44 ± 0.32 %ID/g | tissue uptake at 1 h (in vivo; [8]): 3.28 ± 0.52 %ID/g | tissue uptake at 3 h (in vivo; [8]): 1.36 ± 0.44 %ID/g | tissue uptake at 6 h (in vivo; [8]): 1.08 ± 0.94 %ID/g | tissue uptake at 0.5 h (in vivo; [9]): 10.6 ± 0.48 %ID/g | tissue uptake at 1 h (in vivo; [9]): 14.29 ± 0.01 %ID/g | tissue uptake at 3 h (in vivo; [9]): 8.58 ± 0.1 %ID/g | tissue uptake at 6 h (in vivo; [9]): 4.06 ± 0.43 %ID/g | tissue uptake at 0.5 h (in vivo; [10]): 3.55 ± 0.21 %ID/g | tissue uptake at 1 h (in vivo; [10]): 4.28 ± 0.15 %ID/g | tissue uptake at 3 h (in vivo; [10]): 3.49 ± 0.09 %ID/g | tissue uptake at 6 h (in vivo; [10]): 2.08 ± 0.28 %ID/g | tissue uptake at 0.5 h (in vivo; [11]): 0.94 ± 0.58 %ID/g | tissue uptake at 1 h (in vivo; [11]): 0.76 ± 0.77 %ID/g | tissue uptake at 3 h (in vivo; [11]): 0.52 ± 0.19 %ID/g | tissue uptake at 6 h (in vivo; [11]): 0.32 ± 0.22 %ID/g | tissue uptake at 0.5 h (in vivo; [12]): 0.53 ± 0.42 %ID/g | tissue uptake at 1 h (in vivo; [12]): 0.42 ± 0.84 %ID/g | tissue uptake at 3 h (in vivo; [12]): 0.25 ± 0.87 %ID/g | tissue uptake at 6 h (in vivo; [12]): 0.17 ± 0.31 %ID/g | tissue uptake at 0.5 h (in vivo; [13]): 0.79 ± 0.41 %ID/g | tissue uptake at 1 h (in vivo; [13]): 0.62 ± 0.15 %ID/g | tissue uptake at 3 h (in vivo; [13]): 0.29 ± 0.29 %ID/g | tissue uptake at 6 h (in vivo; [13]): 0.18 ± 0.81 %ID/g | tissue uptake at 0.5 h (in vivo; [14]): 2.56 ± 0.21 %ID/g | tissue uptake at 1 h (in vivo; [14]): 2.31 ± 0.12 %ID/g | tissue uptake at 3 h (in vivo; [14]): 1.16 ± 0.22 %ID/g | tissue uptake at 6 h (in vivo; [14]): 0.44 ± 0.29 %ID/g | tissue uptake at 0.5 h (in vivo; [15]): 0.88 ± 0.44 %ID/g | tissue uptake at 1 h (in vivo; [15]): 0.71 ± 0.31 %ID/g | tissue uptake at 3 h (in vivo; [15]): 0.54 ± 0.28 %ID/g | tissue uptake at 6 h (in vivo; [15]): 0.32 ± 0.19 %ID/g | saline stability of radiopeptide (radiochemical purity remaining) [2]: 95%
